Experiments:
[1] = target: T1, purified human C1q protein (human, UniProt P02745 23-245; P02746 28-253; P02747 29-245); assay: purified human C1q on transfected COS7 cells, anti-C1q-FITC immunofluorescence
Description: COS7 cells were transfected with cDNA's encoding full-length NgR or PirB. […] Cells were washed four times with Hank's Buffered Saline Solution (HBSS), fixed for five minutes with 2% paraformaldehyde, washed four times with HBSS, and blocked for 15 minutes with 10% heat-inactivated goat serum (RIGS) in HBSS. […] Immunofluorescence was detected using a Zeiss Axioskop fluorescence microscope.

[2] = target: T1, purified human C1q protein; assay: purified human C1q on transfected cells, anti-C1q-FITC immunofluorescence

T1 sequence (P02745 23-245, chain 1 of 3): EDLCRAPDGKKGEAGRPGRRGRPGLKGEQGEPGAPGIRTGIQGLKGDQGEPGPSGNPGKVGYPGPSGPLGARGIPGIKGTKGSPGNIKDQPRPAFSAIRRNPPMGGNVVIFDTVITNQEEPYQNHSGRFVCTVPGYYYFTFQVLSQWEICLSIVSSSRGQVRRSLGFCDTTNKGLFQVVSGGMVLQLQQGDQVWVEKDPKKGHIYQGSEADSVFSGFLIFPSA
T1 sequence (P02746 28-253, chain 2 of 3): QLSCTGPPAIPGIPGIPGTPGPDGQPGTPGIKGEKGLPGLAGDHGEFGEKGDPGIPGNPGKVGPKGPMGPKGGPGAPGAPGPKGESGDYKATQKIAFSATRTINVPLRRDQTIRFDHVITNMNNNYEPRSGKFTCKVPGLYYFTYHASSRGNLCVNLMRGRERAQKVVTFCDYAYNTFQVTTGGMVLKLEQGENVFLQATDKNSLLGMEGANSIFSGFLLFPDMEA
T1 sequence (P02747 29-245, chain 3 of 3): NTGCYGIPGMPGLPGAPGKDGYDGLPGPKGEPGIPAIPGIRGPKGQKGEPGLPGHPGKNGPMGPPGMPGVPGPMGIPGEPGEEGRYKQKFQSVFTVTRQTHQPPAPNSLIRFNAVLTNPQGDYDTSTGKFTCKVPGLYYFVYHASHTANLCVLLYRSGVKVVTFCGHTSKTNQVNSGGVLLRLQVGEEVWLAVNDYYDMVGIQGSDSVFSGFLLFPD

B1: PirB (paired-immunoglobulin-like receptor B), full-length, expressed on transfected COS7 cells (receptor)
chain: SLPKPILRVQPDSVVSRWTKVTFFCEETIGANEYRLYKDGKLYKTVTKNKQKPANKAEFSLSNVDLRNAGQYRCSYSTQYKSSGYSDPLELVVTGDYWTPSLLAQASPVVTSGGYVTLQCESWHNDHKFILTVEGPQKLSWTQDSQYNYSTRKYHALFSVGPVTPNQRWICRCYSYDRNRPYVWSPPSESVELLVSGNLQKPTIKAEPGPVIASKRAMTIWCQGNLDAEVYFLHNEGSQKTQSTQTLQQPGNKGKFFIPSMTRQHAGQYRCYCYGSAGWSQPSDTLELVVTGIYEHYKPRLSVLPSPVVTAGGNMTLHCASDFHYDKFILTKEDKKFGNSLDTEHISSSRQYRALFIIGPTTPTHTGTFRCYGYFKNAPQLWSVPSDLQQILISGLSKKPSLLTHQGHILDPGMTLTLQCYSDINYDRFALHKVGGADIMQHSSQQTDTGFSVANFTLGYVSSSTGGQYRCYGAHNLSSEWSASSEPLDILITGQLPLTPSLSVKPNHTVHSGETVSLLCWSMDSVDTFILSKEGSAQQPLRLKSKSHDQQSQAEFSMSAVTSHLSGTYRCYGAQNSSFYLLSSASAPVELTVSGPIETSTPPPTMSMPLGGLHMYLKALIGVSVAFILFLFILIFILLRRRHRGKFRKDVQKEKDLQLSSGAEEPITRKGELQKRPNPAAATQEESLYASVEDMQTEDGVELNSWTPPEEDPQGETYAQVKPSRLRKAGHVSPSVMSREQLNTEYEQAEEGQGANNQAAESGESQDVTYAQLCSRTLRQGAAASPLSQAGEAPEEPSVYATLAAARPEAVPKDVEQ
notes: COS7 cells were transfected with cDNA encoding full-length PirB; In the antibody outgrowth assays the target is the PirB of mouse neurons
B1: binds [1].

B2: LILRB2, expressed on transfected COS7 cells (receptor)
chain: QTGTIPKPTLWAEPDSVITQGSPVTLSCQGSLEAQEYRLYREKKSASWITRIRPELVKNGQFHIPSITWEHTGRYGCQYYSRARWSELSDPLVLVMTGAYPKPTLSAQPSPVVTSGGRVTLQCESQVAFGGFILCKEGEDEHPQCLNSQPHARGSSRAIFSVGPVSPNRRWSHRCYGYDLNSPYVWSSPSDLLELLVPGVSKKPSLSVQPGPVVAPGESLTLQCVSDVGYDRFVLYKEGERDLRQLPGRQPQAGLSQANFTLGPVSRSYGGQYRCYGAYNLSSEWSAPSDPLDILITGQIHGTPFISVQPGPTVASGENVTLLCQSWRQFHTFLLTKAGAADAPLRLRSIHEYPKYQAEFPMSPVTSAHAGTYRCYGSLNSDPYLLSHPSEPLELVVSGPSMGSSPPPTGPISTPAGPEDQPLTPTGSDPQSGLGRHLGVVIGILVAVVLLLLLLLLLFLILRHRRQGKHWTSTQRKADFQHPAGAVGPEPTDRGLQWRSSPAADAQEENLYAAVKDTQPEDGVEMDTRAAASEAPQDVTYAQLHSLTLRRKATEPPPSQEREPPAEPSIYATLAIH
notes: also called ILT4; LIR2
B2: binds [2].

Source: patent US20090232794A1 (published 2009)
